T1: TNFR1 (Homo sapiens, UniProt P19438)
T1 chain: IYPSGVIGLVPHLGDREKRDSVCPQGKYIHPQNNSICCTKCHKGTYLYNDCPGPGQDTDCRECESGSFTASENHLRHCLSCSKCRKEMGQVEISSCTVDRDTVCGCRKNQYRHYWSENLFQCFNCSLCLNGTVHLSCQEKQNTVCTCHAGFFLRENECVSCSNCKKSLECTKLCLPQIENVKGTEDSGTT


Target: T1, TNFR1
Experiment: yeast display SC50

Row | Binder | apparent Kd (screen) [pM]
1 | F20V (designed binder) MTLQELLREEALRRAEAEAVRYALELLAEKFPEQKEYLLDLAEEIESQIRSLSGVDVEDVRKFLDKEWAWVKELLAEHPAELAEVEAARAARLAELRAEVEAKVAA | 490
2 | K35A (designed binder) MTLQELLREEALRRAEAEAFRYALELLAEKFPEQAEYLLDLAEEIESQIRSLSGVDVEDVRKFLDKEWAWVKELLAEHPAELAEVEAARAARLAELRAEVEAKVAA | 1270
3 | E18G (designed binder) MTLQELLREEALRRAEAGAFRYALELLAEKFPEQKEYLLDLAEEIESQIRSLSGVDVEDVRKFLDKEWAWVKELLAEHPAELAEVEAARAARLAELRAEVEAKVAA | 490
4 | L6I (designed binder) MTLQEILREEALRRAEAEAFRYALELLAEKFPEQKEYLLDLAEEIESQIRSLSGVDVEDVRKFLDKEWAWVKELLAEHPAELAEVEAARAARLAELRAEVEAKVAA | 539
5 | Y37C (designed binder) MTLQELLREEALRRAEAEAFRYALELLAEKFPEQKECLLDLAEEIESQIRSLSGVDVEDVRKFLDKEWAWVKELLAEHPAELAEVEAARAARLAELRAEVEAKVAA | 3000
6 | A11S (designed binder) MTLQELLREESLRRAEAEAFRYALELLAEKFPEQKEYLLDLAEEIESQIRSLSGVDVEDVRKFLDKEWAWVKELLAEHPAELAEVEAARAARLAELRAEVEAKVAA | 956
7 | L27G (designed binder) MTLQELLREEALRRAEAEAFRYALELGAEKFPEQKEYLLDLAEEIESQIRSLSGVDVEDVRKFLDKEWAWVKELLAEHPAELAEVEAARAARLAELRAEVEAKVAA | 539
8 | R14L (designed binder) MTLQELLREEALRLAEAEAFRYALELLAEKFPEQKEYLLDLAEEIESQIRSLSGVDVEDVRKFLDKEWAWVKELLAEHPAELAEVEAARAARLAELRAEVEAKVAA | 956
9 | R13D (designed binder) MTLQELLREEALDRAEAEAFRYALELLAEKFPEQKEYLLDLAEEIESQIRSLSGVDVEDVRKFLDKEWAWVKELLAEHPAELAEVEAARAARLAELRAEVEAKVAA | 1690
10 | A11P (designed binder) MTLQELLREEPLRRAEAEAFRYALELLAEKFPEQKEYLLDLAEEIESQIRSLSGVDVEDVRKFLDKEWAWVKELLAEHPAELAEVEAARAARLAELRAEVEAKVAA | 2250
11 | L27M (designed binder) MTLQELLREEALRRAEAEAFRYALELMAEKFPEQKEYLLDLAEEIESQIRSLSGVDVEDVRKFLDKEWAWVKELLAEHPAELAEVEAARAARLAELRAEVEAKVAA | 593
12 | L6G (designed binder) MTLQEGLREEALRRAEAEAFRYALELLAEKFPEQKEYLLDLAEEIESQIRSLSGVDVEDVRKFLDKEWAWVKELLAEHPAELAEVEAARAARLAELRAEVEAKVAA | 22200
13 | A42V (designed binder) MTLQELLREEALRRAEAEAFRYALELLAEKFPEQKEYLLDLVEEIESQIRSLSGVDVEDVRKFLDKEWAWVKELLAEHPAELAEVEAARAARLAELRAEVEAKVAA | 718
14 | E16C (designed binder) MTLQELLREEALRRACAEAFRYALELLAEKFPEQKEYLLDLAEEIESQIRSLSGVDVEDVRKFLDKEWAWVKELLAEHPAELAEVEAARAARLAELRAEVEAKVAA | 593
15 | R50A (designed binder) MTLQELLREEALRRAEAEAFRYALELLAEKFPEQKEYLLDLAEEIESQIASLSGVDVEDVRKFLDKEWAWVKELLAEHPAELAEVEAARAARLAELRAEVEAKVAA | 539
16 | L26Y (designed binder) MTLQELLREEALRRAEAEAFRYALEYLAEKFPEQKEYLLDLAEEIESQIRSLSGVDVEDVRKFLDKEWAWVKELLAEHPAELAEVEAARAARLAELRAEVEAKVAA | 593

Next, values leading:

Row | apparent Kd (screen) [pM] | Binder
17 | 653 | P79I (designed binder) MTLQELLREEALRRAEAEAFRYALELLAEKFPEQKEYLLDLAEEIESQIRSLSGVDVEDVRKFLDKEWAWVKELLAEHIAELAEVEAARAARLAELRAEVEAKVAA
18 | 653 | A102F (designed binder) MTLQELLREEALRRAEAEAFRYALELLAEKFPEQKEYLLDLAEEIESQIRSLSGVDVEDVRKFLDKEWAWVKELLAEHPAELAEVEAARAARLAELRAEVEFKVAA
19 | 653 | K66Q (designed binder) MTLQELLREEALRRAEAEAFRYALELLAEKFPEQKEYLLDLAEEIESQIRSLSGVDVEDVRKFLDQEWAWVKELLAEHPAELAEVEAARAARLAELRAEVEAKVAA
20 | 593 | A91C (designed binder) MTLQELLREEALRRAEAEAFRYALELLAEKFPEQKEYLLDLAEEIESQIRSLSGVDVEDVRKFLDKEWAWVKELLAEHPAELAEVEAARACRLAELRAEVEAKVAA
21 | 539 | V104F (designed binder) MTLQELLREEALRRAEAEAFRYALELLAEKFPEQKEYLLDLAEEIESQIRSLSGVDVEDVRKFLDKEWAWVKELLAEHPAELAEVEAARAARLAELRAEVEAKFAA
22 | 2250 | R92P (designed binder) MTLQELLREEALRRAEAEAFRYALELLAEKFPEQKEYLLDLAEEIESQIRSLSGVDVEDVRKFLDKEWAWVKELLAEHPAELAEVEAARAAPLAELRAEVEAKVAA
23 | 593 | E73A (designed binder) MTLQELLREEALRRAEAEAFRYALELLAEKFPEQKEYLLDLAEEIESQIRSLSGVDVEDVRKFLDKEWAWVKALLAEHPAELAEVEAARAARLAELRAEVEAKVAA
24 | 2730 | W68H (designed binder) MTLQELLREEALRRAEAEAFRYALELLAEKFPEQKEYLLDLAEEIESQIRSLSGVDVEDVRKFLDKEHAWVKELLAEHPAELAEVEAARAARLAELRAEVEAKVAA
25 | 539 | K72N (designed binder) MTLQELLREEALRRAEAEAFRYALELLAEKFPEQKEYLLDLAEEIESQIRSLSGVDVEDVRKFLDKEWAWVNELLAEHPAELAEVEAARAARLAELRAEVEAKVAA
26 | 593 | R92G (designed binder) MTLQELLREEALRRAEAEAFRYALELLAEKFPEQKEYLLDLAEEIESQIRSLSGVDVEDVRKFLDKEWAWVKELLAEHPAELAEVEAARAAGLAELRAEVEAKVAA
27 | 539 | A83H (designed binder) MTLQELLREEALRRAEAEAFRYALELLAEKFPEQKEYLLDLAEEIESQIRSLSGVDVEDVRKFLDKEWAWVKELLAEHPAELHEVEAARAARLAELRAEVEAKVAA
28 | 539 | E99D (designed binder) MTLQELLREEALRRAEAEAFRYALELLAEKFPEQKEYLLDLAEEIESQIRSLSGVDVEDVRKFLDKEWAWVKELLAEHPAELAEVEAARAARLAELRADVEAKVAA
29 | 1690 | V71F (designed binder) MTLQELLREEALRRAEAEAFRYALELLAEKFPEQKEYLLDLAEEIESQIRSLSGVDVEDVRKFLDKEWAWFKELLAEHPAELAEVEAARAARLAELRAEVEAKVAA
30 | 2480 | L82K (designed binder) MTLQELLREEALRRAEAEAFRYALELLAEKFPEQKEYLLDLAEEIESQIRSLSGVDVEDVRKFLDKEWAWVKELLAEHPAEKAEVEAARAARLAELRAEVEAKVAA
31 | 593 | V60L (designed binder) MTLQELLREEALRRAEAEAFRYALELLAEKFPEQKEYLLDLAEEIESQIRSLSGVDVEDLRKFLDKEWAWVKELLAEHPAELAEVEAARAARLAELRAEVEAKVAA
32 | 653 | R92S (designed binder) MTLQELLREEALRRAEAEAFRYALELLAEKFPEQKEYLLDLAEEIESQIRSLSGVDVEDVRKFLDKEWAWVKELLAEHPAELAEVEAARAASLAELRAEVEAKVAA
33 | 956 | A102I (designed binder) MTLQELLREEALRRAEAEAFRYALELLAEKFPEQKEYLLDLAEEIESQIRSLSGVDVEDVRKFLDKEWAWVKELLAEHPAELAEVEAARAARLAELRAEVEIKVAA
34 | 718 | K103M (designed binder) MTLQELLREEALRRAEAEAFRYALELLAEKFPEQKEYLLDLAEEIESQIRSLSGVDVEDVRKFLDKEWAWVKELLAEHPAELAEVEAARAARLAELRAEVEAMVAA
35 | 790 | A105Y (designed binder) MTLQELLREEALRRAEAEAFRYALELLAEKFPEQKEYLLDLAEEIESQIRSLSGVDVEDVRKFLDKEWAWVKELLAEHPAELAEVEAARAARLAELRAEVEAKVYA

Reference: PMC12416549 (2024)
